The values that follow come from the DeepSol protein solubility set.

This series is described as follows: soluble on expression in E. coli; label from the status in PepcDB or PDB records.
In the case of “SLEEKVRPCIDLIDSLRALGVEQDLALPAIAVIGDQSSGKSSVLEALSGVALPRGSGIVTRCPLVLKLKKLVNEDKWRGKVSYQDYEIEISDASEVEKEINKAQNAIAGEGMGISHELITLEISSRDVPDLTLIDLPGITRVAVGNQPADIGYKIKTLIKKYIQRQETISLVVVPSNVDIATTEALSMAQEVDPEGDRTIGILTKPDLVDKGTEDKVVDVVRNLVFHLKKGYMIVKCRGQQEIQDQLSLSEALQREKIFFENHPYFRDLLEEGKATVPCLAEKLTSELITHICKSLPLLENQIKETHQRITEELQKYGVDIPEDENEKMFFLIDKINAFNQDITALMQGEETVGEEDIRLFTRLRHEFHKWSTIIENNFQEGHKILSRKIQKFENQYRGRELPGFVNYRTFETIVKQQIKALEEPAVDMLHTVTDMVRLAFTDVSIKNFEEFFNLHRTAKSKIEDIRAEQEREGEKLIRLHFQMEQIVYCQDQVYRGALQKVREKELEEEKKKKSWDFGAFQSSSATDSSMEEIFQHLMAYHQEASKRISSHIPLIIQFFMLQTYGQQLQKAMLQLLQDKDTYSWLLKERSDTSDKRKFLKERLARLTQARRRLAQFPGEG”, the “soluble on expression in E. coli” value was “not soluble”.

Turning to “SNAMKEKVVIITGGSSGMGKGMATRFAKEGARVVITGRTKEKLEEAKLEIEQFPGQILTVQMDVRNTDDIQKMIEQIDEKFGRIDILINNAAGNFICPAEDLSVNGWNSVINIVLNGTFYCSQAIGKYWIEKGIKGNIINMVATYAWDAGPGVIHSAAAKAGVLAMTKTLAVEWGRKYGIRVNAIAPGPIERTGGADKLWISEEMAKRTIQSVPLGRLGTPEEIAGLAYYLCSDEAAYINGTCMTMDGGQHLHQYPF”, the “soluble on expression in E. coli” value is given as “soluble”.

Take “MTDSKYFTTNKKGEIFELKAELNNEKKEKRKEAVKKVIAAMTVGKDVSSLFPDVVNCMQTDNLELKKLVYLYLMNYAKSQPDMAIMAVNSFVKDCEDPNPLIRALAVRTMGCIRVDKITEYLCEPLRKCLKDEDPYVRKTAAVCVAKLHDINAQMVEDQGFLDSLRDLIADSNPMVVANAVAALSEISESHPNSNLLDLNPQNINKLLTALNECTEWGQIFILDCLSNYNPKDDREAQSICERVTPRLSHANSAVVLSAVKVLMKFLELLPKDSDYYNMLLKKLAPPLVTLLSGEPEVQYVALRNINLIVQKRPEILKQEIKVFFVKYNDPIYVKLEKLDIMIRLASQANIAQVLAELKEYATEVDVDFVRKAVRAIGRCAIKVEQSAERCVSTLLDLIQTKVNYVVQEAIVVIRDIFRKYPNKYESIIATLCENLDSLDEPDARAAMIWIVGEYAERIDNADELLESFLEGFHDESTQVQLTLLTAIVKLFLKKPSETQELVQQVLSLATQDSDNPDLRDRGYIYWRLLSTDPVTAKEVVLSEKPLISEETDLIEPTLLDELICHIGSLASVYHKPPNAFVEGSHGIHRK”: the “soluble on expression in E. coli” value is on record as “soluble”.

Consider “SNAMSSEELEQVWSNIKSEARALAECEPMLASFFHATLLKHENLGSALSYILANKLANPIMPAIAIREVVEEAYRSDAHMIVSAARDILAVRLRDPAVDKYSTPLLYLKGFHALQAYRIGHWLWAQDRKALAIYLQNQVSVAFGVDIHPAATIGCGIMLDHATGIVIGETAVVENDVSILQSVTLGGTGKTSGDRHPKIREGVMIGAGAKILGNIEVGRGAKIGAGSVVLQSVPAHTTAAGVPARIVGKPESDKPSLDMDQHFNGSIQGFEYGDGI”, for which the “soluble on expression in E. coli” value was “soluble”.

“MPSKLFSRRSFVTTACAGLAALALPLPAVALTEARAASLVNEVVTEINRVIASGKSENAMIRDFEKLFVRYGDVPIMARYALGPDARTASPAQLKSFTQAFQGYISRKYGKRFREFIGGEVTVKTARKIKAGYEVKTSVKLQGQAPFDVTFLVSDKSGKDKFFNMFIEGVNLLLTERTEIGSMLDRRKGDLNALIRDLASAGLEHHHHHH”: the “soluble on expression in E. coli” value was “soluble”.

As for “MRITSTANPRIKELARLLERKHRDSQRRFLIEGAREIERALQAGIELEQALVWEGGLNPEEQQVYAALGRVGRLALLEVSEAVLKKLSVRDNPAGLIALARMPERTLEEYRPSPDALILVAVGLEKPGNLGAVLRSADAAGAEAVLVAGGVDLYSPQVIRNSTGVVFSLRTLAASESEVLDWIKQHNLPLVATTPHAEALYWEANLRPPVAIAVGPEHEGLRAAWLEAAQTQVRIPMQGQADSLNVSVSAALLLYEALRQRLLRDRLTKTHSTL”, the “soluble on expression in E. coli” value is recorded as “soluble”.

On to “MGSDKIHHHHHHMMSLSSAETIRASLHNALGKIESFKSCALLDYPDHPNIGDHLIWLGGVIYLTNVMKTQIKYTCSLHNFSPKTLEDNIGKSPIVFHGGGNLGDLWTEQQKFREGIISKYRDRPIVILPQSLYFRHEVNLIKTANIFNSHPNLTIFLRDERSYKIAREAFDKCQVFKAPDMAFQMTDLQDIFHIQNNKSSILYLSRKDREINQKQSENIFDLPNLVVEDWIAYEWKFGHPTKKLAKYVSTLYREVWQRGLATPIEWNSRQKWQNSYPYEVEFNHVYQPSIHQLSWSLMHSGVYQLKQHRLVITNRLHGHIICVLFNIPHVFLPNSYYKNEAFYEEWTKEIPDCRFIKDTSEVKIAVEELLASSTGKAIN”, for which the “soluble on expression in E. coli” value is listed as “not soluble”.

As to “MRFGPVALSAAKGALLAHSRKAPGWTLAKGTRLGDEDLALLAGLGVAEVVVARLDPGDVHEDEAAARVAAVLLGPGLTLGDAFTGRANLFAGGDGLLRLDAARFDRLNALCEGLTVATLPPFAKVAPRQMVATVKIIPFALPETVIAQAEALLAGAPALEVALFRPMRLALIQTHLPETAGKMLDKTASVTAGRMAALGGGLTVDRRCPHDTRALAACLSAVSAEKDVDLIAVAGASAIVDRGDVIPAAITRAGGRVDHLGMPVDPGNLILLGELAGRVVLGLPGCARSPAINGFDWVLDRLCAGLAVGGADLMAMGVGGLLKDTTARTQPRMAAVTHPSPAAPPRLGALVLAAGLSRRMGGVNKLLLDWRGKPLVAHAVDTVLAAGPAAVAVVIGHQGKAVRAALEGRAIALVENPDPGRGLGSSLKRGLAALPADLDGVIVCLGDMPGLTPRLLSRLIAAFAPLEGRAICLPTFGGRRGNPVLFAARFLPEMMEITGDIGARPVIAAHPDQTCEVAMDALAEGASVLMDVDTPEAAKALLSAGGLEHHHHHH”, the “soluble on expression in E. coli” value is on record as “not soluble”.

In the case of “TAGFYINSEISDYFWIKTEFNYVNRGYTHKEAGKTLKTNYYCIDVYPVTPAFHYKGAQIFAGPSVTLLVASNRDTLIGGEVKKIADNKLDGINRYDIGIMAGVEYEFNFGLNIGVRMVRGFTSLYEPVNSIQTQWFNQTYLFTLGYSI”, the “soluble on expression in E. coli” value is reported as “not soluble”.

Turning to “MSLKFFPTRTLLCLCIAAPCLPAIAQNDPIELPDIGTVAGSTLTIDQELIYGDAYMRMLRNNQPVINDPVLNEYIDNLGHRLVASANDVKTPFTFFMIRDRNINAFAFFGGYVALHSGLFLHAQSESELASVMAHEIAHVTQRHLARSMEEQARRSPATIAALAGSLLLAIAAPEAGIAAINATMAGSIQGQINYTRSNEKEADRFGIATLAKAGFDANAMPQFFTRLADEYRYASKPPPMLLTHPLPEDRITDSRERARQYPPLKLAPHLDYHLARARIIARYAGIDADAALDWFARSEKKIDATLQPSIQYGKALVYLDLKQFDKAEPLLTQLVKEQPDNHFYLDAISDLYIELKQADKAQSLLEKALKQTPNNSVLTINYANVLLKQDKFTDAIRILQRYTHDNPNDINGWQLLSEANSRLGNSAEDLAARGEIMALQANWNKAIQFYTQASQLVELGSLAQARYDARIDQLMVQRERFLSLQEGGSHHHHHH”, the “soluble on expression in E. coli” value is reported as “soluble”.

On to “MSLEAEGDEIYEDLMRSEPVSMPPKMTEYDKRCCCLREIQQTEEKYTDTLGSIQQHFLKPLQRFLKPQDIEIIFINIEDLLRVHTHFLKEMKEALGTPGAANLYQVFIKYKERFLVYGRYCSQVESASKHLDRVAAAREDVQMKLEECSQRANNGRFTLRDLLMVPMQRVLKYHLLLQELVKHTQEAMEKENLRLALDAMRDLAQCVNEVKRDEGHHHHHH”, for which the “soluble on expression in E. coli” value is recorded as “soluble”.

As for “AHHHHHHGSKILVVAPCLLTPFYVYRGPKDKEYKTSSELRKLLAELSDEWFIFLYPCPELLAVGWPRPPMSREVLERLGTRERSKIIADFIGRVLTEEKPEKVVFVGVKGSPTCGVFTTTSSNPDEFPYVAVQEFFYLSKEERLRKYKELTKNFKVINAPGLLFEILMARFPEAIFVEFDKDNIEESIRRIREVVKE”, the “soluble on expression in E. coli” value was “soluble”.

For the sequence “MTVIQKSSPTVKGVKTTTSDCTERRHSSSSPCKMSQNGSSGYYEGDVLLDDDALVSMPEATLIECFGNLAVTKRPAHLRPPAAFCLPFVSMNNDLTSGHALKHITLTSVFDALHPYVAMPYINRMDICSAMNVYWIRNCLEAEQSDLFHRFALEMQVHLSACFGCRVVLDIYGSTRNGFGTRFCDVDMSLSFSPSPPSWATNSDRVMRAVAKALVDFPKAVDERYVNAKVPIVRFRSSDMDMEADISYKNDLALHNTQLLQQYCKWDPERLPTLGVWVKAWAKRSGVGDASKGSLSSYAWIVMLIHYLQQVEPIPVLPCLQEMNHQKSENVYVQGYNTYYWKFVDTARTRRCRASVVDLFVGFLDYYATYFDYSTNVIQMVSKKLEFKPDRWCKYPMCIADPFETDHNLAQGVDMPMFEYIRSCMEHSKKVFTDRRMRSEFLSGYGFDVDEFDARHRGEMNMEMASQFGEFLLHKCIMVKQAPNRQFRDRSMSQSTSISNTSSISSSG”, the “soluble on expression in E. coli” value is on record as “soluble”.

For “MSLEPYAAKAHEGYLRNLMLRYSERHEQLMVNIVTSWYDKALMQALKERLEAAMPEQQMTLLNNVTTRKNTVATGEQEYVISGDGYVTERLGDLDFRISANSFFQTNTRQAETLYDQIIAVGGITPEDTVYDLYCGTGTITLYLARHCKQAIGIEVVESAVKDAEMNAELNGLSNTVFFQADLKNFHAMQEALEPYAKPRIIVTDPPRAGMHPKALDTMLKLQPERIVYVSCNPDNLARDGKEIAARGYRMTSAQPVDMFPQTNHIETVACFERAEGHHHHHH”, the “soluble on expression in E. coli” value is on record as “not soluble”.

For the sequence “MAHHHHHHMEQQGDSEAKEHGELTRNGITDNAYDNSVGAFNRTILDRYAHWMTQLDQGACGLRIWKAEELWKRYERVIRVGRGSFGSVFIVYDTERKAYLTVKCMELLGKPGPALRSLSQPTLREVILLSQIDHPNVVRLIDYYLTSDGMLHMCMPIVSHDLVSLIRIWKMRGPRGESSLGRMPLPTVKCVFRQLLRGLEYLHRRNIIHRDLKPSNVMLDDNGVVKIVDFGWARFVPRRWQGRLTGPPCVVTYRPPEILLGGQCSFKYDSSIDIWSAGCILYEMLTGGKAFSNARNEQQALAAITDMLGSPSSRSEVYYGAAGGSRLRPSKRQPRNFEERCRMVNMSNESIDFLGEMLQLEPNSRKSASQLLGHSWFSTSPLPCEPEEVSLPGSNTYRLLERKRTR”, the “soluble on expression in E. coli” value was “not soluble”.

As for “ITLNSEPKCINNIKSGQYERYDTNNTELNRVLGGGLVKGSITLISGAPGIGKSTLLLQICQDIALKYGKVLYVSGEESEHQIKMRGDRLGVTSANIYILAETNMESIERHVENIKPAFVIIDSIQTLYKDQITSAPGSVSQVRECANDIMRIAKTDNIPFFIVAHVTKQGELAGPRVLEHIVDTVLTFEGQRTEEFRILRTVKNRFGTTSEIGVFEMKEEGL”, the “soluble on expression in E. coli” value is recorded as “not soluble”.

“MSSSSSSRIHNGEDVYEKAEEYWSRASQDVNGMLGGFEALHAPDISASKRFIEGLKKKNLFGYFDYALDCGAGIGRVTKHLLMPFFSKVDMEDVVEELITKSDQYIGKHPRIGDKFVEGLQTFAPPERRYDLIWIQWVSGHLVDEDLVDFFKRCAKGLKPGGCIVLKDNVTNHEKRLFDDDDHSWTRTEPELLKAFADSQLDMVSKALQTGFPKEIYPVKMYALKPQHTGFTNN”: the “soluble on expression in E. coli” value is given as “not soluble”.

On to “MAHHHHHHMANAELVDAGCFITQMNELLLIDPLYLNCAMTNYCNSYLSGKEELLPRERLNGIYFKNAKPGLWSSFAIRENSQAHLKKTAKQETETDAANRNDKNTYNNIRNEMVLSFVCFNNTNYMHQYLTVEEVDKLHWERMEPSEGHPGVGPTDKCSSTVDGDSKNEKVANFHNDRSELLPLENYFTNVLTIESGQAGLFCIDSIKNSADLLFQKHGMKNISSREQLDILFNQNMNDLYPWFDQICNLTMTSSVAVVDFMGMPIGCVCLSSSDCVVNYLCEVVRDEVTDEVWAIRVNFLAPLK”, for which the “soluble on expression in E. coli” value is listed as “not soluble”.
